{
  "source": "paper PMC7255924",
  "about": "(The FEBS journal, 2019)",
  "binders": {"B1": {"name": "A3VP1 (386–864) polypeptide of Streptococcus mutans adhesin P1 (domain or fragment)", "chain": "AANEADYQAKLTAYQTELARVQKANADAKAAYEAAVAANNAANAALTAENTAIKKRNADAKADYEAKLAKYQADLAKYQKDLADYPVKLKAYEDEQASIKAALAELEKHKNEDGNLTEPSAQNLVYDLEPNANLSLTTDGKFLKASAVDDAFSKSTSKAKYDQKILQLDDLDITNLEQSNDVASSMELYGNFGDKAGWSTTVSNNSQVKWGSVLLERGQSATATYTNLQNSYYNGKKISKIVYKYTVDPKSKFQGQKVWLGIFTDPTLGVFASAYTGQVEKNTSIFIKNEFTFYDEDGKPINFDNALLSVASLNRENNSIEMAKDYTGKFVKISGSSIGEKNGMIYATDTLNFRQGQGGARWTMYTRASEPGSGWDSSDAPNSWYGAGAIRMSGPNNSVTLGAISSTLVVPADPTMAIETGKKPNIWYSLNGKIRAVNVPKVTKEKPTPPVKPTAPTKPTYETEKPLKPAPVAPNYEKE"}},
  "target": "T1, C3 domain of Streptococcus mutans adhesin P1 (recombinant C3 polypeptide, 175-residue construct) (Streptococcus mutans)",
  "T1 chain": "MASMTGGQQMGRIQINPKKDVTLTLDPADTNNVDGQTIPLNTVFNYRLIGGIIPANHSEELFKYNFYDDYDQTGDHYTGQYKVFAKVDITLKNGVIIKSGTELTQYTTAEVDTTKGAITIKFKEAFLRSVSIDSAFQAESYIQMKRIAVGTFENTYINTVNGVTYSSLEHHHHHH",
  "assay": "ITC",
  "data": [
    {"binder": "B1", "values": [
      {"measurement": "KD of the site with intermediate binding constant (two-site fit)", "value": "35.2 ± 7", "unit": "µM"}
    ]}
  ]
}
